From patent US20210145944

Assays:
[1] = target: Tau-410 (UniProt P10636)
[2] = target: p-Tau-441 (UniProt P10636)
[3] = target: Tau-441 (P301L) (UniProt P10636)
[4] = target: α-synuclein (UniProt P37840)
[5] = test system: Bodipy-labelled casein
[6] = test system: T1, Boc-QAR-AMC (ES014)
T1 sequence: QAR

Sequence of Tau-410 (P10636 other isoform, or with tags, fused parts or gaps): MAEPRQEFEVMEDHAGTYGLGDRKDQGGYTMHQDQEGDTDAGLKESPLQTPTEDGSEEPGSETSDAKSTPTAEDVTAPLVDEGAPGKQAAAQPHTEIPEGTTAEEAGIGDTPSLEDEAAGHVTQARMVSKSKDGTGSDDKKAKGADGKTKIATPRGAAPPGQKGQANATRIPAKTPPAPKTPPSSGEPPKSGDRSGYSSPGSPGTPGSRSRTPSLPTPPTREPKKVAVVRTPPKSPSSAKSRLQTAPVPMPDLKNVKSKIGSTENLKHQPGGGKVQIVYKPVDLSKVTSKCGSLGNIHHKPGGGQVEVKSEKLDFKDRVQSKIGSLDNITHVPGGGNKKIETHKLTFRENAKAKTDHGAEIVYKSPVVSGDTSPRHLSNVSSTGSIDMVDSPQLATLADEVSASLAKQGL
Sequence of p-Tau-441 (P10636 whole entry, looked up): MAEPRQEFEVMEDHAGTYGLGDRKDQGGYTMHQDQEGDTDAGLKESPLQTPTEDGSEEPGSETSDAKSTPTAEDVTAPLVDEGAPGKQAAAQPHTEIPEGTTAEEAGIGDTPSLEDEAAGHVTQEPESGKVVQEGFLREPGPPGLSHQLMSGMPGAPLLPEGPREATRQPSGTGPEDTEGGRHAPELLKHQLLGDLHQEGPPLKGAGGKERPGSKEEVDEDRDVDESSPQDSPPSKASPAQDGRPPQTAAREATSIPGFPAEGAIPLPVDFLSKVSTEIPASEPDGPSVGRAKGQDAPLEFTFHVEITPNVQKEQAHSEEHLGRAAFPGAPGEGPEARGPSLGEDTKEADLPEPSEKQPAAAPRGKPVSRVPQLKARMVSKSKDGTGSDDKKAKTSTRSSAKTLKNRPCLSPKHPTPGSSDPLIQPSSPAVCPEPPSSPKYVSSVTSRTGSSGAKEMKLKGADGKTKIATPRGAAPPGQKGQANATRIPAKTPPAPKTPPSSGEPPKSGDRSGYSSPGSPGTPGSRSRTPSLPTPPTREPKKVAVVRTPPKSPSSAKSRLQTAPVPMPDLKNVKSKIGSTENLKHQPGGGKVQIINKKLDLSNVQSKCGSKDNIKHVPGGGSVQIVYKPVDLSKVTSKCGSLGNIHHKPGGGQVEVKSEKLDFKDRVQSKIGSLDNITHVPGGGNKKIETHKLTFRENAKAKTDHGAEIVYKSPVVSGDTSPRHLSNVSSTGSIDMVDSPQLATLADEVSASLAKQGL
Sequence of Tau-441 (P301L) (P10636 other isoform, or with tags, fused parts or gaps P301L): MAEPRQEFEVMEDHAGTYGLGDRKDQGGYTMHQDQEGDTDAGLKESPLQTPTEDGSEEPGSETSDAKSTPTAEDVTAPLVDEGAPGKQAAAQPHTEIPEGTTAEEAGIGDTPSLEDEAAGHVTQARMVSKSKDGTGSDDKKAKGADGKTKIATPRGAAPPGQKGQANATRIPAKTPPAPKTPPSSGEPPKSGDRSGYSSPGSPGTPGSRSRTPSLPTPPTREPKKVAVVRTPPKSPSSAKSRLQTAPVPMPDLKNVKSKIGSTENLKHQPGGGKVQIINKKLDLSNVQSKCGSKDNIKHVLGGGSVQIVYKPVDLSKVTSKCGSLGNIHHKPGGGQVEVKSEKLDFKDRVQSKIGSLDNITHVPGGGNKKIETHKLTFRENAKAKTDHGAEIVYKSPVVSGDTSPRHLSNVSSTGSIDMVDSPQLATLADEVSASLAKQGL

Substance | % digestion at 0 min [1] [%] | % digestion at 1 min [1] [%] | % digestion at 5 min [1] [%] | % digestion at 60 min [1] [%] | digestion on immobilized protease column (FIGS. 3B, 3C, 3E, 3F and Table 2) [1] | % digestion at 0 min [2] [%] | % digestion at 1 min [2] [%] | % digestion at 5 min [2] [%] | % digestion at 60 min [2] [%] | digestion on immobilized protease column (FIGS. 3B, 3C, 3E, 3F and Table 2) [2] | digestion on immobilized protease column, SDS-PAGE silver stain (FIG. 3A) [3] | loss of the Tau-441 (P301L) band on a silver-stained SDS-PAGE gel after incubation on the protease column [3] | % digestion at 0 min [4] [%] | % digestion at 1 min [4] [%] | digestion on immobilized protease column (FIGS. 3D and 3G and Table 2) [4] | casein digestion by resin-immobilized protease, RFU (520 nm) over time [5] | casein digestion by resin-immobilized protease, RFU over time [5] | casein digestion by resin-immobilized protease, fluorescence (RFU) at 5 and 60 min [5] | casein digestion, fluorescence (RFU) of Bodipy-labelled casein after 1 h against protease concentration in solution [5] | casein-digestion activity, immobilized protease, fluorescence [5] | further results
trypsin | 0 | 59 | 65 | 93 | rapidly degraded | 0 | 70 | 100 | 100 | rapidly degraded | rapidly degraded | no band in the Trypsin column lanes at 2, 10 and 20 min; the No protease column lanes show a strong band of equal strength at 2, 10 and 20 min | 0 | 90 | rapidly degraded | rises from 0 to about 46000 RFU at 60 min and about 58000 RFU at 120 min; Control-Resin (no protease) stays at or slightly below 0 | rises from 0 to about 24000 RFU at 60 min and about 76000 RFU at 120 min; control resin stays at about 0 | bar at 5 min about 1.0x10^7 RFU, bar at 60 min about 2.2x10^7 RFU; lowest of the three groups; no control bar drawn | near 0 up to about 0.2 ug/ml, rises slowly to about 1.4x10^7 RFU at 100 ug/ml; no upper plateau; lowest of the three curves | exhibited casein-digestion activity at 5 minute and 60 minute incubation times | % digestion at 5 min [4]: 100%; % digestion at 60 min [4]: 100%; casein-digestion activity, immobilized protease, fluorescence (FIG. 2B) [5]: exhibited casein-digestion activity at 60 minute and 120 minute incubation times; casein-digestion activity, protease in solution, fluorescence [5]: exhibited casein-digestion activity having linear reaction kinetics up to approximately 6 µg/ml of each protease
Cathepsin D resin |  |  |  |  |  |  |  |  |  |  |  |  |  |  |  |  | no signal: the line falls from 0 to about -6000 RFU at 120 min, at or below the control resin (about 0) over the whole time range |  |  |  | 
elastase | 0 | 28 | 50 | 81 | rapidly degraded | 0 | 33 | 93 | 100 | rapidly degraded | rapidly degraded | no band in the Elastase column lanes at 2, 10 and 20 min; the No protease column lanes show a strong band of equal strength at 2, 10 and 20 min, just above the second labelled marker | 0 | 71 | rapidly degraded | rises from 0 to about 107000 RFU at 60 min and about 150000 RFU at 120 min; Control-Resin (no protease) stays at or slightly below 0 | rises from 0 to about 40000 RFU at 60 min and about 95000 RFU at 120 min; highest curve; control resin stays at about 0 | bar at 5 min about 1.5x10^7 RFU, bar at 60 min about 4.3x10^7 RFU; signal grows with time; no control bar drawn | near 0 at about 0.006 ug/ml, rises steadily to about 8.5x10^7 RFU at 100 ug/ml on a log axis; still rising, no upper plateau; highest of the three curves | exhibited casein-digestion activity at 5 minute and 60 minute incubation times | casein-digestion activity, immobilized protease, fluorescence (FIG. 2B) [5]: exhibited casein-digestion activity at 60 minute and 120 minute incubation times; casein-digestion activity, protease in solution, fluorescence [5]: exhibited casein-digestion activity having linear reaction kinetics up to approximately 6 µg/ml of each protease
kallikrein-6 (KLK6) activated by lysyl endopeptidase |  |  |  |  |  |  |  |  |  |  |  |  |  |  |  |  | close to the control at 60 min (about 1000-2000 RFU), then about 19000 RFU at 120 min; control resin stays at about 0 |  |  | also exhibited casein-digestion activity at 120 minute incubation time | cleavage of fluorogenic peptide substrate, immobilized protease, 30, 60, 120 min [6]: exhibited protease activity at all time points tested; cleavage of the fluorogenic peptide substrate by resin-immobilized protease, AMC fluorescence (RFU) over time [6]: about 65000 RFU at 30 min, about 108000 at 60 min and about 215000 at 120 min, still rising; Control resin + ES014 stays at 0
